The target of data set [1] is T1, Ac-SLGR-AMC.
T1 chain: SLGR

Data set [2] deals with Complement C3 (human).
For data set [3], the target named is T2, Ac-GLAR-AMC.
T2 chain: GLAR

For data set [4], the target named is T3, Complement C2 (human).
T3 chain: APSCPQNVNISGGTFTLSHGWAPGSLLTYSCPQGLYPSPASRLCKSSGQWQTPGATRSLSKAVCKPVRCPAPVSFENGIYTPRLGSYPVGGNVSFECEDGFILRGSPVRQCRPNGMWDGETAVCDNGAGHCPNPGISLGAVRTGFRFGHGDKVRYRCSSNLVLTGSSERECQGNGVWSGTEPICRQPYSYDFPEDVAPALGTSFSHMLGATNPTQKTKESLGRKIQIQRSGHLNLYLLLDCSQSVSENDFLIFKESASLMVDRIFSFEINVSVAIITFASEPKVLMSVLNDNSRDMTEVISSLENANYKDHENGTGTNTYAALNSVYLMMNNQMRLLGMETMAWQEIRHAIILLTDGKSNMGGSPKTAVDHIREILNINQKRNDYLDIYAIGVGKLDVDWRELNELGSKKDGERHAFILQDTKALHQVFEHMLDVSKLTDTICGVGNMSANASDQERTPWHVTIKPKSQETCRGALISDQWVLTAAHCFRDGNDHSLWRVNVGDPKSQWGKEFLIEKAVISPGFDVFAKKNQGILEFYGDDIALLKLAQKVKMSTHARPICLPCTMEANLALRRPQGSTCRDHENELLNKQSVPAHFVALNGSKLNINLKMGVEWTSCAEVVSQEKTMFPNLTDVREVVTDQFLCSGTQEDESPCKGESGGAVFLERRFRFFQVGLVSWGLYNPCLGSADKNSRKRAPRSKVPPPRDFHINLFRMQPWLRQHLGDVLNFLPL

The target in data set [5] is T4, Complement C4 (human).
T4 chain 1: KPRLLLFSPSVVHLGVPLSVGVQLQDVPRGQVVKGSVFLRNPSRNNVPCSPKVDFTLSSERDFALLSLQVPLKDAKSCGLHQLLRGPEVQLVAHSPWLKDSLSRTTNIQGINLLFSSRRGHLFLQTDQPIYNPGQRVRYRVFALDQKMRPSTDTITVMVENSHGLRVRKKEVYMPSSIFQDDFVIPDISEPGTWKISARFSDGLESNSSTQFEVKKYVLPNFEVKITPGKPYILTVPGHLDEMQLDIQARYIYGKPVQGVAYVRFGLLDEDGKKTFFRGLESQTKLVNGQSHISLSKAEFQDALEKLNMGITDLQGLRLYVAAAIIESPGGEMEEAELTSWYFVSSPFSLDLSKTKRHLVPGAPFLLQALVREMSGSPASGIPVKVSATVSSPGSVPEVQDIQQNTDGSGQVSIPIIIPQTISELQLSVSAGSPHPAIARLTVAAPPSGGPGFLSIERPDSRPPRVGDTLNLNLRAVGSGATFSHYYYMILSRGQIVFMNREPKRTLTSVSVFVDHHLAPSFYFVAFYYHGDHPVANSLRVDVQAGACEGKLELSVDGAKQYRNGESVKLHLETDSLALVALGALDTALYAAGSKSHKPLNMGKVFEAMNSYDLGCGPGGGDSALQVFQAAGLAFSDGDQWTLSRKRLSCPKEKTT
T4 chain 2: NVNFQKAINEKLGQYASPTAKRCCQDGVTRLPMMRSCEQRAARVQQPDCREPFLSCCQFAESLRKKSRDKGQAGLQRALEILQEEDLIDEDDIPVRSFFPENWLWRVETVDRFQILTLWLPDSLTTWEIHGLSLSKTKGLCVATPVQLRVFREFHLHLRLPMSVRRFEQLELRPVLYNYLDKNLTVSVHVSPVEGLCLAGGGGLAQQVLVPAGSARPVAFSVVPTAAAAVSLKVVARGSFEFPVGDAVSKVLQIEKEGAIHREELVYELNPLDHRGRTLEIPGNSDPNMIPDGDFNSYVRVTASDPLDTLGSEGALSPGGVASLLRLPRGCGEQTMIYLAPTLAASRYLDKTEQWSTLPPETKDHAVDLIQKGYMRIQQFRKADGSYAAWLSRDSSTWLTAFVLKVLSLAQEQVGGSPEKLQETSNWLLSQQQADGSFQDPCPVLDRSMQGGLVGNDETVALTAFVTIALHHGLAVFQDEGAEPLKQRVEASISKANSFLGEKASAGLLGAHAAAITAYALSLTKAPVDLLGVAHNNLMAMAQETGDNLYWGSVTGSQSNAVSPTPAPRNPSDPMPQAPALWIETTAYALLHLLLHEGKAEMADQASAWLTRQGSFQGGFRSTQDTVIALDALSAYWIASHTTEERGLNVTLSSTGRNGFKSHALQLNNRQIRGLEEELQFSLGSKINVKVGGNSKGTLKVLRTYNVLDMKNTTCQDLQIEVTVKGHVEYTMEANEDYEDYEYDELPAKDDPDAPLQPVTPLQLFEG
T4 chain 3: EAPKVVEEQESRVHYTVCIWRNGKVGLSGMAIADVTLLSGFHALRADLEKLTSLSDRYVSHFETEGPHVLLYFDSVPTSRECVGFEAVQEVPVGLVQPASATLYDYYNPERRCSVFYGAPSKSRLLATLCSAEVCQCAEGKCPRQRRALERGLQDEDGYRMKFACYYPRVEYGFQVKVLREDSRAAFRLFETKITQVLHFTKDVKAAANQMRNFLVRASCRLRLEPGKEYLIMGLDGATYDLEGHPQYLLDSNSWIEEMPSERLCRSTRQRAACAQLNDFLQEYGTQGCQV

The target in data set [6] is Complement C5 (human).
Sequence of Complement C5 (human) (chain, as listed by the source, chain 1 of 2): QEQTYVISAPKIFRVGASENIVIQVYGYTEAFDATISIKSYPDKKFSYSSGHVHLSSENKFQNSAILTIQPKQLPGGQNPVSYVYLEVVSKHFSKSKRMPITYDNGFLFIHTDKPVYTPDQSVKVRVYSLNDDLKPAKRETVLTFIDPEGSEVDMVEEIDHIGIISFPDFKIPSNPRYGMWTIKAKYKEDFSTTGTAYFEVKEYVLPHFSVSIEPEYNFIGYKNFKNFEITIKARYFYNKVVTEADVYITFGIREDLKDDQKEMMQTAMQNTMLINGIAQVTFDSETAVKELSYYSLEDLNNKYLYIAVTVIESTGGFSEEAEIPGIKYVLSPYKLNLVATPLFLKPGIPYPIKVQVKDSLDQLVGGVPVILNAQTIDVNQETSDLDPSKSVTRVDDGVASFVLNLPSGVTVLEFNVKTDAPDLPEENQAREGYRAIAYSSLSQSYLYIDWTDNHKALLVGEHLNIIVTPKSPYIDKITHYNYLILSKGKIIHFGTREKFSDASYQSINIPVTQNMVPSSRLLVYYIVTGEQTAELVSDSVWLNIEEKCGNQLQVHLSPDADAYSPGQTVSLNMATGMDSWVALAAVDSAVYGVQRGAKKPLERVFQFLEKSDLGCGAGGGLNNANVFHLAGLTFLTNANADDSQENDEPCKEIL
Sequence of Complement C5 (human) (chain, as listed by the source, chain 2 of 2): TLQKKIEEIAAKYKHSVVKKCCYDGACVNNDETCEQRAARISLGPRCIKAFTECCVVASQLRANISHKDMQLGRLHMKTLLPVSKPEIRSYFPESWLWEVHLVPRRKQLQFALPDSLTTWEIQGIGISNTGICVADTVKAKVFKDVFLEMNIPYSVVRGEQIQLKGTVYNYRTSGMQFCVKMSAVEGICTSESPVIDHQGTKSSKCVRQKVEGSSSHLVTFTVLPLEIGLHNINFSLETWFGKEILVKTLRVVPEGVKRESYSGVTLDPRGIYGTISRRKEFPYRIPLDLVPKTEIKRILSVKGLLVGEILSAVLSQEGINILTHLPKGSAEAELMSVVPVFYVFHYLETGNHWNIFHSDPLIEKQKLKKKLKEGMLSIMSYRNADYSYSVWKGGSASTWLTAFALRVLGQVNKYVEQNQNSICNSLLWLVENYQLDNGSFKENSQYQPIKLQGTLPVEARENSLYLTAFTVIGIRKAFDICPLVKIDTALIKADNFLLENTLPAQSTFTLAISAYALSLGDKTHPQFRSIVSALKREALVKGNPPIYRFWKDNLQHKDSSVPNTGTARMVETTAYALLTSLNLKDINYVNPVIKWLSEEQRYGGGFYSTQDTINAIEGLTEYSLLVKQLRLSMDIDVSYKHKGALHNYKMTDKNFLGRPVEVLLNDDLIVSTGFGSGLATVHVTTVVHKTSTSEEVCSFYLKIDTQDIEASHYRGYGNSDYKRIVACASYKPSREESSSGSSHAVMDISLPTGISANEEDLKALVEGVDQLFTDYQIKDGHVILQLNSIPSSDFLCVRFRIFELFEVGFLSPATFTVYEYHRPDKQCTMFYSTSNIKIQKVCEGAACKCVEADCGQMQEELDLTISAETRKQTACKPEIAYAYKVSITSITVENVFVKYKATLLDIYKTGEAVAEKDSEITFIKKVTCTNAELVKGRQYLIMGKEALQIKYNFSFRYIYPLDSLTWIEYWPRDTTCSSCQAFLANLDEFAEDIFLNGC
Data set [7] concerns the target T5, Ac-RQAR-AMC.
T5 chain: RQAR

B1: modified MT-SP1 CB155 (Y146D/K224F) protease domain (protein)
chain: VVGGTDADEGEWPWQVSLHALGQGHICGASLISPNWLVSAAHCYIDDRGFRYSDPTQWTAFLGLHDQSQRSAPGVQERRLKRIISHPFFNDFTFDYDIALLELEKPAEYSSMVRPICLPDASHVFPAGKAIWVTGWGHTQDGGTGALILQKGEIRVINQTTCENLLPQQITPRMMCVGFLSGGVDSCQGDSGGPLSSVEADGRIFQAGVVSWGDGCAQRNFPGVYTRLPLFRDWIKENTGV
Turning to B1, the kcat/Km (specificity constant), fluorogenic peptide cleavage in data set [1] was determined as 3700 M⁻¹ s⁻¹; in data set [3] it was 3500 M⁻¹ s⁻¹; in data set [7], 91000 M⁻¹ s⁻¹. Moreover, the Fraction of Hemolysis (protease-incubated purified complement protein added back to depleted sera) in data set [2] was 0.072; in data set [4], -0.00104; in data set [5], 0.944; in data set [6], 0.943. Further, in data set [4], the kcat/Km (specificity constant) of cleavage of full length C2, in gel kinetics (SDS-PAGE densitometry time course) was found to be 72000 M⁻¹ s⁻¹.

B2: modified MT-SP1 CB42 (Y146E) protease domain (protein)
chain: VVGGTDADEGEWPWQVSLHALGQGHICGASLISPNWLVSAAHCYIDDRGFRYSDPTQWTAFLGLHDQSQRSAPGVQERRLKRIISHPFFNDWTFDYDIALLELEKPAEYSSMVRPICLPDASHVFPAGKAIWVTGWGHTQEGGTGALILQKGEIRVINQTTCENLLPQQITPRMMCVGFLSGGVDSCQGDSGGPLSSVEADGRIFQAGVVSWGDGCAQRNKPGVYTRLPLFRDWIKENTGV
For B2, the kcat/Km (specificity constant), fluorogenic peptide cleavage in data set [1] was 59000 M⁻¹ s⁻¹; in data set [3], 63000 M⁻¹ s⁻¹; in data set [7] it was 1.8e+06 M⁻¹ s⁻¹. For the same protein, the Fraction of Hemolysis (protease-incubated purified complement protein added back to depleted sera) in data set [2] was found to be 0.122; in data set [4] it was 0.0714; in data set [5] it was 1.04; in data set [6] it was 1.02. Further, in data set [4], the kcat/Km (specificity constant) of cleavage of full length C2, in gel kinetics (SDS-PAGE densitometry time course) came to 36000 M⁻¹ s⁻¹.

B3: modified MT-SP1 CB387 (Y146D/Q175W/K224L) protease domain (protein)
chain: VVGGTDADEGEWPWQVSLHALGQGHICGASLISPNWLVSAAHCYIDDRGFRYSDPTQWTAFLGLHDQSQRSAPGVQERRLKRIISHPFFNDFTFDYDIALLELEKPAEYSSMVRPICLPDASHVFPAGKAIWVTGWGHTQDGGTGALILQKGEIRVINQTTCENLLPQWITPRMMCVGFLSGGVDSCQGDSGGPLSSVEADGRIFQAGVVSWGDGCAQRNLPGVYTRLPLFRDWIKENTGV
B3: the “C3 Western blot of samples of the alternative hemolysis assay (human plasma)” value (“C3 Western blot” for short) in data set [2] is “cleave C3 as assessed by decreased C3 product as compared to the no protease treated plasma sample”.

B4: modified MT-SP1 CB331 (I41D/Y146D/K224L) protease domain (protein)
chain: VVGGTDADEGEWPWQVSLHALGQGHDCGASLISPNWLVSAAHCYIDDRGFRYSDPTQWTAFLGLHDQSQRSAPGVQERRLKRIISHPFFNDFTFDYDIALLELEKPAEYSSMVRPICLPDASHVFPAGKAIWVTGWGHTQDGGTGALILQKGEIRVINQTTCENLLPQQITPRMMCVGFLSGGVDSCQGDSGGPLSSVEADGRIFQAGVVSWGDGCAQRNLPGVYTRLPLFRDWIKENTGV
Take B4: the “C3 Western blot” value in data set [2] is “cleave C3 as assessed by decreased C3 product as compared to the no protease treated plasma sample”.

B5: modified MT-SP1 CB349 (I41D/Y146D/K224F) protease domain (protein)
chain: VVGGTDADEGEWPWQVSLHALGQGHDCGASLISPNWLVSAAHCYIDDRGFRYSDPTQWTAFLGLHDQSQRSAPGVQERRLKRIISHPFFNDFTFDYDIALLELEKPAEYSSMVRPICLPDASHVFPAGKAIWVTGWGHTQDGGTGALILQKGEIRVINQTTCENLLPQQITPRMMCVGFLSGGVDSCQGDSGGPLSSVEADGRIFQAGVVSWGDGCAQRNFPGVYTRLPLFRDWIKENTGV
With B5, the “C3 Western blot” value in data set [2] is listed as “cleave C3 as assessed by decreased C3 product as compared to the no protease treated plasma sample”.

For the origin of these results see patent US20070093443.
